Test results as given in patent US20090104207A1 (published 2009).
*: point of attachment. Biotin = O=C1N[C@H]2[C@H](CS[C@H]2CCCCC(=O)*)N1

Key:
[1] = target: HCV E1 envelope glycoprotein, genotype 1a strain H77, on retroviral pseudoparticles (hepatitis C virus genotype 1a strain H77, UniProt P27958 192-383); assay: cell-based or functional assay
[2] = target: HCV E1 envelope glycoprotein, genotype 4a isolate UKN4a, on retroviral pseudoparticles (hepatitis C virus genotype 4a); assay: cell-based or functional assay
[3] = target: HCV E1 envelope glycoprotein, genotype 2a isolate JFH1, on retroviral pseudoparticles (hepatitis C virus genotype 2a, UniProt Q99IB8 192-383); assay: cell-based or functional assay
HCV E1 envelope glycoprotein, genotype 2a isolate JFH1, on retroviral pseudoparticles, sequence (Q99IB8 192-383 limits assumed): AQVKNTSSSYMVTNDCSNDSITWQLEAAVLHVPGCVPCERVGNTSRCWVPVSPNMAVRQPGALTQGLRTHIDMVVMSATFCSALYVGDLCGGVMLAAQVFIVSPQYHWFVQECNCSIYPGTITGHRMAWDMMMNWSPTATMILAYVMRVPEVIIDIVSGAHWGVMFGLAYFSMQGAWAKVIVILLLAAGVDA

IGP 2254 = target: T1, IGP 2254 (hepatitis C virus, SMILES …); assay: BIAcore, antibody immobilized, peptide in solution
T1 peptide: Biotin-GGITGHRMAWDMMMNWS-NH2

IGP 2137 = target: T2, IGP 2137 (hepatitis C virus); assay: peptide ELISA (fine-mapping)
T2 construct: also called RMAWDM

IGP 2242 = IGP 2242 (hepatitis C virus); assay: ELISA, biotinylated peptide on streptavidin plates (FIG. 9)
IGP 2138 = target: T3, IGP 2138 (hepatitis C virus); assay: as above
T3 construct: also called WDMMMNW

IGP 2241 = IGP 2241 (hepatitis C virus); assay: as above
IGP 3472 = IGP 3472 (hepatitis C virus); assay: ELISA: biotinylated peptide on streptavidin-coated plate, serial dilution of 5D2; EC50 from Prism, shown as difference in log EC50 versus IGP 2254

HCV E1 envelope glycoprotein, genotype 1a strain H77, on retroviral pseudoparticles, sequence (P27958 192-383 limits assumed): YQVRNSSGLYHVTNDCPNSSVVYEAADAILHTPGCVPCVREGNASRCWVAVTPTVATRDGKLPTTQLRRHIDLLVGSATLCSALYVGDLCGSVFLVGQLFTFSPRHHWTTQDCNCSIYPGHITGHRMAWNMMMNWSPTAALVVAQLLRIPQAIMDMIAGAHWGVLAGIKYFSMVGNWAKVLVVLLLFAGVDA

B1: 5D2 (antibody, V domains shown)
VH: QVQLVESGGGVVQPGRSLRLSCVASGFTFSHYAMHWIRQAPGKGLEWVAVVSYDGSNKFYVDSVKGRFTISRDNSKNTVYLQMNSLRAVDTAVYYCARDPGVVTGSWSDSDGPPIHWGQGTLVTVSS
VL: DIVVTQSPDSLAVSLGERATITCKSSQSVFYSSNNKNYLGWYQQKPGQPPKLLIYWASTRASGVPDRFSGSGSGTDFTLTISSLQAEDVAVYYCQQYYTSWAFGQGTKVEIKR
notes: also called 5D2H9; IGH 534
lowest concentration of antibody exhibiting at least 50% neutralization of HCVpp versus control [1]: 25 µg/mL | lowest concentration of antibody exhibiting at least 50% neutralization of HCVpp versus control [2]: > 25 µg/mL | lowest concentration of antibody exhibiting at least 50% neutralization of HCVpp versus control [3]: 6.2 µg/mL | Kd (IGP 2254): 0.06 nM | koff (IGP 2254): 9.46e-05 s⁻¹ | kon (IGP 2254): 1.71e+06 M⁻¹ s⁻¹ | binding result (IGP 2137): no binding | binding result (IGP 2242): binds | binding result (IGP 2138): no binding | binding result (IGP 2241): no binding | binding result (IGP 3472): no binding
